Patent EP4772193A1 (Teijin Pharma Limited, dated 2026)
Numbering of substitutions follows the chain as printed. In names and notes the source's numbering stands.

T1: recombinant human soluble gpNMB (recombinant human gpNMB-FLAG-His) (human, UniProt Q14956 23-498)
T1 sequence: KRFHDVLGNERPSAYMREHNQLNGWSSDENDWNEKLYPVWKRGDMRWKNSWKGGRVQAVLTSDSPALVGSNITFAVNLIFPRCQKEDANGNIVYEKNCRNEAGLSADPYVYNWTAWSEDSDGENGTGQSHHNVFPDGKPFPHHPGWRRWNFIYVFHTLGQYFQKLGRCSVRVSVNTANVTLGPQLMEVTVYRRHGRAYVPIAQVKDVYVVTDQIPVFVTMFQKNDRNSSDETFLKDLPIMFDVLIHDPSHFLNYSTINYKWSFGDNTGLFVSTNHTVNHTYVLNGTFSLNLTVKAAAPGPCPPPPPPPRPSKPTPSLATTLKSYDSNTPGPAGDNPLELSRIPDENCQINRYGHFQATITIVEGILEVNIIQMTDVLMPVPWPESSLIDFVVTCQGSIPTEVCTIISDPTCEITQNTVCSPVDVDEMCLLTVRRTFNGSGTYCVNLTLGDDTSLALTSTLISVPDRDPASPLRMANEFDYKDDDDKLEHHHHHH

B1: hGPN18-2_H2L3 VH S32A (antibody, V domains shown)
VH: QVQLVQSGPGLVQPTQTLTLTCSFSGFSLSTAVMGVGWIRQPSGKGLEWLADIWWDDDKDYNPSLKSRLTISKDTSKNQVVLTMTNMDTVDTATYYCARTYYSNYEYYGMDYWGQGTLVTVSS
VL: DIVMTQSPDSLAVSLGERATINCRSSQTIILSNGNTYLEWYQQKPGQPPKLLIYKVSNRFSGVPDRFSGSGSGTDFTLTISSLQAEDVAVYYCFQGSHVPFTFGSGTKLEIKR
B2: hGPN18-2_H2L3 VH V33A (antibody, V domains shown)
VH: B1 VH with A32S, V33A
VL: B1 VL
B3: hGPN18-2_H2L3 VH S30A (antibody, V domains shown)
VH: B1 VH with S30A, A32S
VL: B1 VL
B4: hGPN18-2_H2L3 VH V36A (antibody, V domains shown)
VH: B1 VH with A32S, V36A
VL: B1 VL
B5: hGPN18-2_H2L3 VH W54A (antibody, V domains shown)
VH: B1 VH with A32S, W54A
VL: B1 VL
B6: hGPN18-2_H2L3 VH W55A (antibody, V domains shown)
VH: B1 VH with A32S, W55A
VL: B1 VL
B7: hGPN18-2_H2L3 VH T31A (antibody, V domains shown)
VH: B1 VH with T31A, A32S
VL: B1 VL
B8: hGPN06-1_H1L1 VH D110A (antibody, V domains shown)
VH: QVQLVQSGAEVKKPGASVKVSCKASGYTFTDNWMGWVKQRPGQGLEWIGAIDPSDSFTNYNQNFKGRVTMTVDTSISTAYMELSRLRSDDSAVYFCTRSGYYGSPKLGGAYWGQGTLVTVSS
VL: EIVLTQSPSSLSASVGDRVTITCSASSSISYMHWYQQKSGTAPKLLIYSTSNLASGVPSRFSGSGSGTDFTFTISSLQPEDAATYYCHQWNSYPCTFGGGTKLEIK
B9: hGPN06-1_H1L1 VH G103A (antibody, V domains shown)
VH: B8 VH with G103A, A110D
VL: B8 VL
B10: hGPN06-1_H1L1 VH G100A (antibody, V domains shown)
VH: B8 VH with G100A, A110D
VL: B8 VL
B11: hGPN06-1_H1L1 VH G109A (antibody, V domains shown)
VH: B8 VH with G109A, A110D
VL: B8 VL
B12: hGPN06-1_H1L1 VH K106A (antibody, V domains shown)
VH: B8 VH with K106A, A110D
VL: B8 VL
B13: hGPN06-1_H1L1 VH G108A (antibody, V domains shown)
VH: B8 VH with G108A, A110D
VL: B8 VL
B14: hGPN18-2_H2L3 VH D111A (antibody, V domains shown)
VH: B1 VH with A32S, D111A
VL: B1 VL
B15: hGPN18-2_H2L3 VH Y112A (antibody, V domains shown)
VH: B1 VH with A32S, Y112A
VL: B1 VL
B16: hGPN18-2_H2L3 VH M110A (antibody, V domains shown)
VH: B1 VH with A32S, M110A
VL: B1 VL
B17: hGPN18-2_H2L3 VH Y108A (antibody, V domains shown)
VH: B1 VH with A32S, Y108A
VL: B1 VL
B18: hGPN18-2_H2L3 VH S64A (antibody, V domains shown)
VH: B1 VH with A32S, S64A
VL: B1 VL
B19: hGPN18-2_H2L3 VH Y105A (antibody, V domains shown)
VH: B1 VH with A32S, Y105A
VL: B1 VL
B20: hGPN18-2_H2L3 VH S67A (antibody, V domains shown)
VH: B1 VH with A32S, S67A
VL: B1 VL
B21: hGPN18-2_H2L3 VH G109A (antibody, V domains shown)
VH: B1 VH with A32S, G109A
VL: B1 VL
B22: hGPN18-2_H2L3 VH E106A (antibody, V domains shown)
VH: B1 VH with A32S, E106A
VL: B1 VL
B23: hGPN18-2_H2L3 VH N62A (antibody, V domains shown)
VH: B1 VH with A32S, N62A
VL: B1 VL
B24: hGPN18-2_H2L3 VH Y61A (antibody, V domains shown)
VH: B1 VH with A32S, Y61A
VL: B1 VL
B25: hGPN18-2_H2L3 VH R99A (antibody, V domains shown)
VH: B1 VH with A32S, R99A
VL: B1 VL
B26: hGPN18-2_H2L3 VH Y101A (antibody, V domains shown)
VH: B1 VH with A32S, Y101A
VL: B1 VL
B27: hGPN18-2_H2L3 VH P63A (antibody, V domains shown)
VH: B1 VH with A32S, P63A
VL: B1 VL
B28: hGPN18-2_H2L3 VH L65A (antibody, V domains shown)
VH: B1 VH with A32S, L65A
VL: B1 VL
B29: hGPN18-2_H2L3 VH S103A (antibody, V domains shown)
VH: B1 VH with A32S, S103A
VL: B1 VL
B30: hGPN18-2_H2L3 VH K66A (antibody, V domains shown)
VH: B1 VH with A32S, K66A
VL: B1 VL
B31: hGPN18-2_H2L3 VH N104A (antibody, V domains shown)
VH: B1 VH with A32S, N104A
VL: B1 VL
B32: hGPN18-2_H2L3 VH Y102A (antibody, V domains shown)
VH: B1 VH with A32S, Y102A
VL: B1 VL
B33: hGPN18-2_H2L3 VH T100A (antibody, V domains shown)
VH: B1 VH with A32S, T100A
VL: B1 VL
B34: hGPN18-2_H2L3 VH Y107A (antibody, V domains shown)
VH: B1 VH with A32S, Y107A
VL: B1 VL

Each binder was assayed against T1, recombinant human soluble gpNMB … (assay: antigen ELISA).

EC50	Binder
4.31 nM	B1
8.88 nM	B2
6.6 nM	B3
3.43 nM	B4
38 nM	B5
8.36 nM	B6
3.12 nM	B7

Target: T1, recombinant human soluble gpNMB …
Assay: antigen ELISA
Remark: another data set of the same source

EC50	Binder
0.956 nM	B8
0.762 nM	B9
65.8 nM	B10
4.89 nM	B11
0.441 nM	B12
0.476 nM	B13

The binders below were run against T1, recombinant human soluble gpNMB … (assay: antigen ELISA, vs hGPN18-2_H2L3).

Relative binding activity	Binder
0.62	B14
1.05	B15
0.41	B16
0.91	B17
1.09	B18
0.47	B19
1.01	B20
0.61	B21
0.64	B22
0.97	B23
0.7	B24
0.37	B25
0.61	B26
0.43	B27
0.94	B28
0.94	B29
0.96	B30
0.8	B31
0.07	B32
0.47	B33
0.06	B34

Target: T1, recombinant human soluble gpNMB …
Assay: antigen ELISA
Remark: another data set of the same source

EC50	Binder
11.3 nM	B14
3.73 nM	B15
23.4 nM	B16
4.7 nM	B17
3.59 nM	B18
15.6 nM	B19
4.25 nM	B20
10.5 nM	B21
10.8 nM	B22
4.58 nM	B23
7.55 nM	B24
10.6 nM	B25
7.68 nM	B26
12 nM	B27
5.04 nM	B28
4.04 nM	B29
4.96 nM	B30
5.62 nM	B31
49.1 nM	B32
8.44 nM	B33
60.9 nM	B34

The binders below were run against T1, recombinant human soluble gpNMB … (assay: antigen ELISA, vs hGPN06-1_H1L1).

Relative binding activity	Binder
0.79	B8
1.14	B9
0.06	B10
0.34	B11
1	B12
0.96	B13

Target: T1, recombinant human soluble gpNMB …
Assay: antigen ELISA, vs hGPN18-2_H2L3
Remark: another data set of the same source

Relative binding activity	Binder
0.78	B1
0.55	B2
0.97	B3
0.92	B4
0.2	B5
0.66	B6
0.97	B7
